Measured values as given in publication PMC4954055, “A Self‐Assembled Respiratory Chain that Catalyzes NADH Oxidation by Ubiquinone‐10 Cycling between Complex I and the Alternative Oxidase” (Angewandte Chemie (International Ed. in English), 2015).

Substrate: COC1=C(OC)C(=O)C(C/C=C(\C)CC/C=C(\C)CC/C=C(\C)CC/C=C(\C)CC/C=C(\C)CC/C=C(\C)CC/C=C(\C)CC/C=C(\C)CC/C=C(\C)CCC=C(C)C)=C(C)C1=O
Experiment: NADH:O2 oxidoreduction in Q10 proteoliposomes, Michaelis-Menten fit
Type: biochemical, Bos taurus
Settings: 200 μM NADH, 15 μg/mL alamethicin, 10 mM Tris-SO4 pH 7.5, 50 mM KCl, 32 °C, excess AOX reoxidizes Q10H2, membrane-phase concentration, stated as approximately 3.9 mM Q10 in the membrane phase

B1: complex I (NADH:ubiquinone oxidoreductase, CI) (Bos taurus) (protein)
chain 1: ARQWQPDVEWAEQYGGAVMYPTKETAHWKPPPWNDVDPPKDTLVSNLTLNFGPQHPAAHGVLRLVMELSGEMVRKCDPHIGLLHRGTEKLIEYKTYLQALPYFDRLDYVSMMCNEQAYSLAVEKLLNIQPPPRAQWIRVLFGEITRLLNHIMAVTTHALDIGAMTPFFWMFEEREKMFEFYERVSGARMHAAYVRPGGVHQDLPLGLMDDIYEFSKNFSLRIDELEEMLTNNRIWRNRTVDIGIVTAEDALNYGFSGVMLRGSGIQWDLRKTQPYDVYDQVEFDVPIGSRGDCYDRYLCRVEEMRQSIRIISQCLNKMPPGEIKVDDAKVSPPKRAEMKTSMESLIHHFKLYTEGYQVPPGATYTAIEAPKGEFGVYLVSDGSSRPYRCKIKAPGFAHLAGLDKMSKGHMLADVVAIIGTQDIVFGEVDR
chain 2: not shown
chain 3: not shown
notes: native complex purified from heart mitochondria, detergent-solubilized, reconstituted into proteoliposomes with Q10 and AOX; with NADH dehydrogenase [ubiquinone] flavoprotein 1, mitochondrial; NADH dehydrogenase [ubiquinone] flavoprotein 2, mitochondrial; NADH-ubiquinone oxidoreductase 75 kDa subunit, mitochondrial; NADH dehydrogenase [ubiquinone] iron-sulfur protein 3, mitochondrial; NADH …
Question: For B1, which kcat is on record?
Answer: Its kcat is 500 s⁻¹.
